Assay results reported in US20240280570A1 (KING ABDULLAH UNIVERSITY OF SCIENCE AND TECHNOLOGY, published 2024).

Target: T1, FRB-24-mCherry-Wp3-TwinStrep
T1 construct: also called Negative control (mCherry); FRB-mCherry fusion
Assay: OECT transfer curves (ID against VG), PEDOT:PSS channel

B1: GFPnanobody-8aa-SpyCatcher-3C cleavage site-His10 (VHH)
VHH: QVQLVESGGALVQPGGSLRLSCAASGFPVNRYSMRWYRQAPGKEREWVAGMSSAGDRSSYEDSVKGRFTISRDDARNTVYLQMNSLKPEDTAVYYCNVNVGFEYWGQGTQVTVSS
notes: also called anti-GFP nanobody; GFP nanobody-SpyCatcher
binding result: no binding (tested: 2 x 10^-8 M)
